Test results reported in the RNAGym collection of RNA variant scans (doi:10.1073/pnas.2313332121).

B1: TPR t1 (parent)
chain: GACCAAUCUGCCCUCAGAGCUCGAGAACAUCUUCGGAUGCAGAGGAGGCAGGCUUCGGUGGCGCGAUAGCGCCAACGUCCUCAACCUCCAAUGCAUCCCACCACAUGAUGAUGCCUGAAGAGCCUUGGUUUUUUG

Variants of: B1
Assay: polymerase ribozyme fitness, log enrichment relative to wild type (log ratio); higher = more active; in vitro selection for triplet polymerase activity
Procedure, shortened: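 Fitness is a logarithmic measure of how a genotype enriched relative to the wild type, with replicate averages weighted by inverse variance. The logarithm uses base 2, and enrichment came from Illumina sequencing of input and output libraries. Those libraries were PCR-built, transcribed mutants of each subunit of a heterodimeric triplet polymerase ribozyme, passed through one triplicate in vitro selection round that included frozen incubation at −7 °C, gel excision of extended constructs and streptavidin-bead capture. Genotypes were kept only if they had ≥10 input reads and ≥1 read per output.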

Row | Variant | polymerase ribozyme fitness (log ratio)
1 | GACCAAUCUGCCCUCAGAGCUCGAGAACAUCUGCGGAUGCAGAGGAGGCAGCCUUCGGUGGCGCGAUAGCGCCAACGACCUCAACCUCCAAUGCAUCACACCACAUGAUGAGGCCGGAAGAGCCUUGGUUUUUUG [U33G G52C U78A C98A U112G U116G] | -7.02
2 | GACCAAUCUGCCCUCAGAGCUCGAGAACAUCUGCGGAUGCAGAGGAGGCAGGCGUCGCUGGCGCGAUAGCGCCGACGUCCUCAACCUCCAAUGCAUCCCACCACAUGAUGAUGCCUGAACAGCCUUGGUUUUUUG [U33G U54G G58C A74G G120C] | -5.75
3 | GACCAAUCUGCCCUCAGAGCUCGAGAACAUCUUAGGAUGCAGAGGAGGCAGGCUUCGGUGGCGCGAUAGCGCCAACGUCCUCAGCCUCCAAUGCAUCCCACCACAUGAUGAUGCCUGAAGGGCCUUGGUUUUUUG [C34A A84G A121G] | -2.74
4 | GACCAAUCUGCCCUCAGAGCUCGAGAACAUCUUAGGAUGCAGAGGAGGCAGGCUUCGGUGGCGCGAUGGCGCCAACGUCCUCAACCUCCAAUGCAUCCCCCCACAUGAUGAUGCCUGAAGAGUCUUGGUUUUUUG [C34A A68G A100C C123U] | -5.6
5 | GACCAAUCUGCCCUCAGAGCUCGAGAACAUCUUAGGAUGCAGAGGAGGCAGGCUUCGGUGGCGCGAUAGCGCCAACGUCCUCAACCUCCAAUGCAUCCCACCACAUGAUGAUGCCUGAAGUGCCUUGGUUUUUUG [C34A A121U] | -0.134
6 | GACCAAUCUGCCCUCAGAGCUCGAGAACAUCUUAGGAUGCAGAGGAGGCAGGCUUCGGUGGCGCGAUAGCGACAACGUCCUCAACCUCCAAUGCAUCCCACUACAUGAUGAUGCCUGAAGAGCCUUGGUUUUUUG [C34A C72A C102U] | -2.07
7 | GACCAAUCUGCCCUCAGAGCUCGAGAACAUCUCCGGAUGCAGAGGAGGCAGGCUUCGGUAGCGCGAUAGCGCCAACGUCCUCAACCUCCAAUGCAUCCCACCACAUGAUGAUGCCUGAAGAGCCUUGGUUUUUUG [U33C G60A] | -4.87
8 | GACCAAUCUGCCCUCAGAGCUCGAGAACAUCUUAGGAUGUUGAGGAGGCAGGCUUCGGUGGCGCGAUAGCGCCAACGUCCUCAACCUCCAAUGCAUCCCAACACAUGAUGAUGACUGAAAAGCCUUGGUUUUUUG [C34A C40U A41U C101A C114A G120A] | -6.72
9 | GACCAAUCUGCCCUCAGAGCUCGAGAACAUCUUAGGUUGCAGAGGAGGCAGGCUUCGGUGGCGCGAUACCGCCAACGUCCUCAACCUCCAAUGCAUCCCACCACAUGAUGAUGCCUGAAAAGCCUUGGUUUUUUG [C34A A37U G69C G120A] | -5.05
10 | GACCAAUCUGCCCUCAGAGCUCGAGAACAUCUCCGGAUGCAGAGGAGGCAGGCUUCGGUGGCGCGAUAUCGCCAACGUCCUCAACCUCCAAUGCAUCCCACCACAUGAUGAUGCCUGAAGAGCCUUGGUUUUUUG [U33C G69U] | -1.74
11 | GACCAAUCUGCCCUCAGAGCUCGAGAACAUCUUAGGAUGCAGAGGAGGCAGGCUUCGGUGGCGUGAUAGCGCCAACGUCCUCAACCUCCAAUGCAUCCCACCACAUGAUGAUGCCUGAAGAGCCUUGGUUUUUUG [C34A C64U] | -2.37
12 | GACCAAUCUGCCCUCAGAGCUCGAGAACAUCUUAGGAUGUAGAGGAGGCAGGCUUCGGUGGCGCGAUAGCGCCAACGUCCUCAAACUCCAAUGCAUCCCACCACAUGAUGAUGCCUGAAGAGCCUUGGUUUUUUG [C34A C40U C85A] | -5.11
13 | GACCAAUCUGCCCUCAGAGCUCGAGAACAUCUCCGGAUGCAGAGGAGGCAGGCUUCGGUGGCGCGAUAGCGCCAACGUCCUCAACCUCCAAUGCAUCCCACCACAUGAUGAUGCCUGAAGAGCCUUGGUUUAUUG [U33C U132A] | -4.81
14 | GACCAAUCUGCCCUCAGAGCUCGAGAACAUCUGCGGAUGCAGAGGAGGCAGGCUUCGGGGGCGCGAUAGCGCCAACGUCCUCAACCUCCAAUGCAUCCCACCACAUGAUAAUGCCUGAAGAGCCUUGGUUUUUUG [U33G U59G G110A] | -5.54
15 | GACCAAUCUGCCCUCAGAGCUCGAGAACAUCUUAGGAUGCAGAGGAGGCGGGCUUCGGUGGCGCGAUAGCGCCAACGUCCUCAACCUCCAAUGCAUCCCACCACAUGAUGAUUCCUGAACAGCCUUGGUUUUUUG [C34A A50G G113U G120C] | -6.31
16 | GACCAAUCUGCCCUCAGAGCUCGAGAACAUCUGCGGAUGCAGAGGAGGCAGGCUUCGGUGGCGCGAUAGCGACAACGUCCUCAAGCUCCGAUGCAUCCCACCACAUGAUGAUGCCUGAACAGCCUUGGGUUUUUG [U33G C72A C85G A90G G120C U129G] | -7.02
17 | GACCAAUCUGCCCUCAGAGCUCGAGAACAUCUUAGGAUGCAGAGGAGGCAGGCUUAGGUGGCGCGAUAGCGCCAACGUCCUCAACCUCCAAUGCAUCCCACCAUAUGAUGAUGCCUGAAGAGCCUUGGUUUUUUG [C34A C56A C104U] | -2.11
18 | GACCAAUCUGCCCUCAGAGCUCGAGAACAUCUGCGGAUGCAGAGGAGGCAGGCUUCGGUGGCGCGAUAGCGCCAACGUCCUCAACCUCCAAUGCAUCCCACCAUAUGAUGAUGCCUGAAGAGCCUUGGUUUUUUG [U33G C104U] | -5.5
19 | GACCAAUCUGCCCUCAGAGCUCGAGAACAUCUUAGGAUGCAGAGGUGGCAGGCUUCGGUGGCGCGAUAGCGCCAGCGUCCUCAACCUCCAAUGCAUCCCACUACAUGAUGGUGCCUGAAGAGCCUUGGUUUUUUG [C34A A46U A75G C102U A111G] | -3.22
20 | GACCAAUCUGCCCUCAGAGCUCGAGAACAUCUGCGGAUGCAGAGGAGGCAGGCUUCGGUGACGCGAUAGCGCCAACGUCGUCAACCUCCACAGCAUCCCAUCACAUGAUGAUGCGUGAAGAGCCUUGGUUUUUUG [U33G G61A C80G A91C U92A C101U C115G] | -8.32
21 | GACCAAUCUGCCCUCAGAGCUCGAGAACAUCUUAGGAUGCAGAGGAGGCAGGCUUGGGUGGCGCGAUAGCGCCAACGUCCUCAACCUCCAAUGCAUCCCACCACAUGAUGAUGCCUAAAGAGCCUUGGUUUUUUG [C34A C56G G117A] | -5.64
